The results in this text go back to US20180105572A1.

The target in one test is α4β7 integrin on RPMI 8866 cells (UniProt P13612). Put plainly: cell-based or functional assay.
With “C-N cyclic peptide SEQ ID NO: 477, Cyclo(a-(N-Me-R)-S-D-T-L-a)”, the Cell Adhesion A4B7 (nM); RPMI 8866 cells adhering to plate-bound rh MAdCAM-1/Fc Chimera, MTT read-out is greater than 10000 nM. Same read-out and setting: for “C-N cyclic peptide SEQ ID NO: 479, cyclo<a-(N-Me-R)-S-D-T-L-n>” the value was greater than 10000 nM; for “C-N cyclic peptide SEQ ID NO: 484, cyclo<a-(N-Me-R)-S-D-T-L-e>”, greater than 1000 nM; for “C-N cyclic peptide SEQ ID NO: 495, cyclo<f-(N-Me-R)-S-D-T-L-a>”, greater than 10000 nM.

In the next test the target is rh integrin α4β7 (R&D Systems #5397-A30) (human) (UniProt P13612). Put plainly: α4β7-MAdCAM competition ELISA. On the technique in general: ELISA stands for enzyme-linked immunosorbent assay.
In the case of “C-N cyclic peptide SEQ ID NO: 478, cyclo<a-(N-Me-R)-S-D-T-L-n>”, the IC50 (as a rule, the midpoint of a concentration-inhibition curve) was greater than 1000 nM. The substance “C-N cyclic peptide SEQ ID NO: 480, cyclo<h-(N-Me-R)-S-D-T-L-a>” gave an IC50 greater than 1000 nM.

For the substance “C-N cyclic peptide SEQ ID NO: 482, cyclo<a-(N-Me-R)-S-D-T-L-e>”, the IC50 is greater than 1000 nM. “C-N cyclic peptide SEQ ID NO: 483, cyclo<a-(N-Me-R)-S-D-T-L-e>” showed an IC50 greater than 1000 nM. On the same count and under the same terms, for “C-N cyclic peptide SEQ ID NO: 485, cyclo<k-(N-Me-R)-S-D-T-L-a>” the value was greater than 1000 nM. Consider “C-N cyclic peptide SEQ ID NO: 486, cyclo<k-(N-Me-R)-S-D-T-L-a>”, for which the IC50 is greater than 1000 nM. Still for that read-out and setting: for “C-N cyclic peptide SEQ ID NO: 489, cyclo<a-(N-Me-R)-S-D-T-L-l>” the value was greater than 1000 nM; for “C-N cyclic peptide SEQ ID NO: 490, cyclo<a-(N-Me-R)-S-D-T-L-h>”, greater than 1000 nM; for “C-N cyclic peptide SEQ ID NO: 492, cyclo<a-(N-Me-R)-S-D-T-L-f>”, greater than 1000 nM. Take “C-N cyclic peptide SEQ ID NO: 494, cyclo<f-(N-Me-R)-S-D-T-L-a>”: the IC50 is greater than 1000 nM. The same measure, in the same setting: for “C-N cyclic peptide SEQ ID NO: 496, cyclo<l-(N-Me-R)-S-D-T-L-a>” the value was greater than 1000 nM; for “C-N cyclic peptide SEQ ID NO: 498, cyclo<p-(N-Me-R)-S-D-T-L-a>”, greater than 1000 nM; for “C-N cyclic peptide SEQ ID NO: 500, cyclo<r-(N-Me-R)-S-D-T-L-a>”, greater than 1000 nM. On the same count and under the same terms, for “C-N cyclic peptide SEQ ID NO: 502, cyclo<A-(N-Me-R)-S-D-T-L-a>” the value was greater than 1000 nM; for “C-N cyclic peptide SEQ ID NO: 503, cyclo<A-(N-Me-R)-S-D-T-L-k>”, greater than 1000 nM.

As for “C-N cyclic peptide SEQ ID NO: 504, cyclo<a-(N-Me-R)-S-D-T-L-A-a>”, the IC50 was greater than 1000 nM.
